Test [1] concerns the target T1, human TIGIT ECD expressed on the CHO-S cell surface (human, UniProt Q495A1 22-141).
T1 construct: sections 3.13 and 4.1 say only stably expressing human TIGIT; also called CHO-S-hTIGIT; CHO-S-huTIGIT
T1 sequence: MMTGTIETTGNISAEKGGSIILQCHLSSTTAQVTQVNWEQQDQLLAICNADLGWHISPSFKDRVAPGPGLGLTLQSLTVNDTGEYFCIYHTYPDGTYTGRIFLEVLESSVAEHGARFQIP
In words: flow cytometry blocking assay on CHO-S-human TIGIT cells, competitor biotinylated human CD112-Fc 2 µg/mL. (In general: Flow cytometry measures light scatter and fluorescence of single cells or particles in a stream.)

The target in test [2] is T2, human TIGIT ECD P114G (human, UniProt Q495A1 22-141).
T2 construct: point mutant expressed in E. coli
T2 chain: T1 sequence with P93G
In words: SPR, antibody captured, mutant TIGIT ECD injected. For orientation: SPR reads the build-up and loss of mass on a sensor chip optically.

The target of test [3] is T3, human TIGIT ECD Q53A (human, UniProt Q495A1 22-141).
T3 construct: point mutant expressed in E. coli
T3 chain: T1 sequence with Q32A
The experiment in a line: SPR, antibody captured, mutant TIGIT ECD injected.

Test [4] has as its target T4, human TIGIT ECD Y113A (human, UniProt Q495A1 22-141).
T4 construct: point mutant expressed in E. coli
T4 chain: T1 sequence with Y92A
In words: SPR, antibody captured, mutant TIGIT ECD injected.

Test [5] addresses T5, human TIGIT ECD T55A (human, UniProt Q495A1 22-141).
T5 construct: point mutant expressed in E. coli
T5 chain: T1 sequence with T34A
In words: SPR, antibody captured, mutant TIGIT ECD injected.

For test [6], the target named is T6, cynomolgus monkey TIGIT on primary T cells (cynomolgus monkey, UniProt A0A7N9I9V4 89-312).
T6 construct: whole, on cells; also called cyno PBMCs; cynomolgus monkey spleen cells
The experiment in a line: target occupancy on CD3+ T cells of cynomolgus monkey spleen cells, unoccupied TIGIT detected with biotinylated 3963H03-12, flow cytometry, 6 donors.

Test [7] has as its target T7, human TIGIT ECD N70A (human, UniProt Q495A1 22-141).
T7 construct: point mutant expressed in E. coli
T7 chain: T1 sequence with N49A
The experiment in a line: SPR, antibody captured on anti-human Fc, TIGIT ECD injected.

Test [8] deals with T2, human TIGIT ECD P114G. The test is described as above.
For test [9], the target named is T8, human TIGIT ECD D115A (human, UniProt Q495A1 22-141).
T8 construct: point mutant expressed in E. coli
T8 chain: T1 sequence with D94A
Described as above.

The target of test [10] is T9, human TIGIT ECD T117A (human, UniProt Q495A1 22-141).
T9 construct: point mutant expressed in E. coli
T9 chain: T1 sequence with T96A
The test is described as above.

Test [11] deals with T3, human TIGIT ECD Q53A. Described as above.
The target in test [12] is T4, human TIGIT ECD Y113A. Described as above.
For test [13], the target named is T10, human TIGIT ECD H111A (human, UniProt Q495A1 22-141).
T10 construct: point mutant expressed in E. coli
T10 chain: T1 sequence with H90A
The description is as above.

Test [14] deals with T11, human TIGIT on cells (primary T cells, transfected HEK293 cells, Jurkat reporter cells, NK cells) (human, UniProt Q495A1 22-244).
T11 construct: also called TIGIT-transfected HEK293 cells
T11 sequence: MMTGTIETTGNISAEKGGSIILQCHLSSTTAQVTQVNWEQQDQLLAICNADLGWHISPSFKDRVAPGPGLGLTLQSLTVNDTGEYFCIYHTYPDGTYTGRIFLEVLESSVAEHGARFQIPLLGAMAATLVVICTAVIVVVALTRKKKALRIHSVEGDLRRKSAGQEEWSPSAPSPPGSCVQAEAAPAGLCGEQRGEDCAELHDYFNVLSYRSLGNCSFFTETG
The experiment in a line: target occupancy on CD3+ T cells in human whole blood, unoccupied TIGIT detected with biotinylated 3963H03-12, flow cytometry, 9 donors.

Test [15] concerns the target T11, human TIGIT on cells (primary T cells, …). In words: flow cytometry on CD3+ T cells of human PBMCs.
Test [16] shares this target. In words: cell-based or functional assay.

Positions count from the first letter of the chain named. Several values for one entry are separate records, joined by “and”; a condition that tells them apart may be missing. Equal values may be shown once.

T6 sequence (A0A7N9I9V4 entry or part of it): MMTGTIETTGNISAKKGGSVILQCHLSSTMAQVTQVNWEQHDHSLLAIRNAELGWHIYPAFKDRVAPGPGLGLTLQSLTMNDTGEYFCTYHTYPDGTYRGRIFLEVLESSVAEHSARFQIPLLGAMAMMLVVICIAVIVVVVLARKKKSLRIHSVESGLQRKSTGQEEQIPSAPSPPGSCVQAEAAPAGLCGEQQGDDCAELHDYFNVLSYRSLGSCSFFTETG

B1: 3963H03-12 (antibody, human IgG1, kappa, V domains shown)
VH: QVQLVQSGSELKKPGASVKVSCKASGYTFTSYPMNWVRQAPGQGLEWMGWINTNTGNPTYAQGFTGRFVFSLDTSVSTAYLQISSLKAEDTAVYYCARVGGYSVDEYAFDVWGQGTLVTVSS
VL: DIQLTQSPSFLSASVGDRVTITCRASQGISSYLAWYQQKPGKAPKLLIYAASTLQSGVPSRFSGSGSGTEFTLTISSLQPEDFATYYCQQLSSYPTFGGGTKVEIKR
notes: also called anti-TIGIT H03-12; 39631H03-12
Regarding B1, the IC50 (in general, the concentration that gives 50% inhibition) in test [1] is 0.411 µg/mL and 2.8 nM. Further, the binding result in test [2], in [3], in test [4] and in test [5] was “no binding (tested: 100 nM antigen)” in each case. For the same molecule, the EC50 (as a rule, the midpoint of the concentration-response curve) in test [6] is 0.0927 µg/mL and 0.6 nM; in test [14], 0.24 µg/mL and 1.6 nM; in test [15] it was 0.0852 µg/mL and 0.6 nM. Moreover, the dissociation constant Kd (in general, the constant that tells how readily two partners part at equilibrium) is 31.5 nM in test [7], 14.4 nM in test [9], 1.58 nM in test [10] and 30.9 nM in test [13]. The “ΔΔGmut” value in [7] is 1.61 kcal/mol; in [8], greater than 3 kcal/mol; in test [9] it was 1.14 kcal/mol; in test [10], -0.17 kcal/mol; in test [11], greater than 3 kcal/mol; in [12], greater than 3 kcal/mol. In addition, the “ΔΔGmut” value in test [13] is 1.6 kcal/mol. In addition, in test [16], the “NK-mediated killing of P815.hCD155 cells (Caspase-3/7 signal)” value is no more than 2 fold.
